{"source": "patent US12209142B2", "about": "“SARS-CoV-2 epitope-targeted peptide immunostimulants” (Institute for Systems Biology, priority 2020, dated 2025)", "key": {"[1]": {"assay": "Isocratic point of PCCs (C18 prep-scale column elution)", "format": "physicochemical", "description": "The efficacy of AR-PCCs in vivo will not only depend on target binding, but also pharmacokinetic (PK) properties, of which clearance pathway is an important parameter. […] Modifications include single- and double-residue substitutions, residue removal, and the addition of non-ionic PEG and charged poly-arginine tags (Ri, where i represents the number of arginine). Results of this optimization are shown in FIG. 4B, which plots IP versus the affinity of the compound to MrkA, relative to cy(LLFFF) (SEQ ID NO:5).\nPCC compounds were purified on a Waters Autopurification system, which isolated compounds based on MS peaks corresponding to protonated [M+1H]^+ and [M+2H]^2+, and/or sodium adducts [M+Na]^+ and [M+2Na]^2+. The isocratic points of PCCs were determined based on the elution of the compound from a C18 prep-scale column. Synthetic epitopes were either purified on the Waters Autopurification System, or by semi-preparative HPLC and then using matrix-assisted laser desorption/ionization mass spectroscopy to identify fractions with the desired m/z ratio. The resulting peptides were lyophilized, the yield determined by mass difference or UV-visible absorbance, and resuspended at a concentration of up to 10 mM peptide in DMSO. Peptides were stored at −80° C. before thawing for each use."}, "[2]": {"test_system": "MrkA-expressing K. pneumoniae cells", "assay": "Whole-cell ELISA of biotinylated PCC binding", "details": "biotinylated PCC at 5 μM"}, "[3]": {"target": "T1, full-length recombinant MrkA protein (Klebsiella pneumoniae, UniProt P12267)", "T1 construct": "purchased MyBiosource MBS1248970", "T1 sequence (P12267 23-202)": "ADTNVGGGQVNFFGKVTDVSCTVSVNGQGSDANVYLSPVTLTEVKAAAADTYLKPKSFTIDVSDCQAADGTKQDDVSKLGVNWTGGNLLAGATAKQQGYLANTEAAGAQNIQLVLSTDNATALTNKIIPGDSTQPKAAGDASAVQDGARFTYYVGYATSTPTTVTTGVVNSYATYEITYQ", "assay": "Sandwich ELISA of PCC binding to full-length MrkA", "experimental": "The screen yielded 26 hits (Table 2) that were sequenced, scaled up, and tested for binding to full-length recombinant MrkA in solution by single-point sandwich Enzyme-linked immunoassays (ELISAs) (FIG. 8). HPraGly is present before X1 in each peptide and Az4 follows X5 in each peptide.\nAn alanine scan was performed to establish which residues of cy(LLFFF) (SEQ ID NO:5) contribute most to MrkA binding. In this assay, a sandwich ELISA is used to quantify the affinity of several cy(LLFFF) (SEQ ID NO:5) analogues, in which one residue is substituted with an alanine, towards full-length MrkA protein. The ELISA results in FIG. 4 show lower signal for every alanine-substituted cy(LLFFF) (SEQ ID NO:5) analogue compared to unmodified cy(LLFFF) (SEQ ID NO:5), establishing that the native compound has the highest affinity. […] Thus, these two C-terminal phenylalanine residues (FIG. 3A, arrows in inset) play critical roles in MrkA binding, and are targets for modifications to improve binding. Another important detail of these alanine scan results is a strong dependence of MrkA binding on the residue position, independent of residue type. For example, cy(LLAFF) (SEQ ID NO:9) and cy(LLFFA) (SEQ ID NO:11) have very different binding affinities, despite having the same phenylalanine-to-alanine substitution.\nIn vitro ELISA assays. ELISA assays for MrkA-binding and epitope selectivity were performed on clear NeutrAvidin Coated High Capacity Plates (ThermoFisher, 15507). The buffer used for all washes and to dissolve all compounds was TBST+0.1% BSA (TBS+0.05% Tween 20+0.1% BSA, pH 7.3) and, unless otherwise stated, steps were conducted at room temperature. Each wash involved a brief 20 s agitation, and all conjugation, blocking, and incubation steps were performed with gentle agitation over the entire stated time period. The general procedure for an ELISA assay was: wash 3×200 μL/well, conjugate with 2 μM of biotinylated compound for 2 h at room temperature (100 μL/well), wash 3×200 μL/well, blocked overnight in 5 wt % milk at 4° C., wash […] with wash buffer, incubate with titrated compound (e.g., MrkA or epitope) for 1 h, […], incubate with primary antibody […] for 1 h (100 μL/well), wash 3×200 μL/well, incubate with 1:2,000 anti-rabbit secondary antibody-horseradish peroxidase conjugate (Cell signaling Technologies, 7074S) for 1 h, 3×200 μL/well, develop with the Microwell Peroxidase Substrate System (2-C) (SeraCare, 5120-0047) using 100 μL/well for 1-40 minutes, and quench using 1 M H2SO4 (aq.) at 100 μL/well. For MrkA binding assays, biotinylated PCCs were conjugated to the well surface, recombinant MrkA with an N-terminal 6×His-SUMO-tag (MyBiosource, MBS1248970) was titrated at the desired concentration, and the primary antibody was His-tag antibody, pAb, Rabbit (Genscript, A00174) at a 1:5,000 dilution. For epitope selectivity assays, biotinylated SynEps were conjugated, DNP-conjugated AR-PCCs were titrated at a desired concentration, and the primary antibody was anti-DNP antibody produced in Rabbit (Sigma-Aldrich, D9656) at a 1:8,000 dilution. […] For binding tests in the context of mouse sera, the “titrated compound” described in the steps above was dispersed in a solution containing the desired concentration of mouse serum."}}, "note": "Entries after “also recorded” stand apart in the source; their conditions may differ. Where no end group is shown, it is not given here.", "data": [{"substance": "cy(LLFFF)+R6", "values": [{"measurement": "reduction / improvement in IP versus cy(LLFFF)", "setting": "[1]", "value": "~35", "unit": "%"}, {"measurement": "isocratic point (IP)", "setting": "[1]; elution from C18 prep-scale column", "value": "~40", "unit": "%"}, {"measurement": "whole-cell ELISA signal, K. pneumoniae BAA 1705 and BAA 2146", "setting": "[2]", "value": "similarly high selectivity towards MrkA-expressing cells"}, {"measurement": "binding of MrkA protein in mouse sera", "setting": "[3]; MrkA protein at 250 nM in 10 and 100% mouse sera", "value": "binds MrkA protein in the context of sera; also recorded: bound MrkA protein in solutions of 10 and 100% mouse sera, albeit at lower levels versus 0% serum"}, {"measurement": "stronger affinity to MrkA over cy(LLFFF)", "setting": "[3]; ratio of ELISA signals to cy(LLFFF) reference on same plate", "value": 22, "unit": "%"}]}, {"substance": "Ref. compound (LLFFF; not fully specified (bridges); printed as cy(LLFFF); also: cyclised (cy), ring-closing ends (Pra and azidolysine) not shown in this chain)", "values": [{"measurement": "Isocratic point (%)", "setting": "[1]; N-terminal tag Bio-Peg10-peg10-", "value": 74.53, "unit": "%"}, {"measurement": "Isocratic point (%)", "setting": "[1]; N-terminal tag Bio-peg5-", "value": 78.85, "unit": "%"}, {"measurement": "Isocratic point (%)", "setting": "[1]; N-terminal tag Bio-peg10-", "value": 75.88, "unit": "%"}, {"measurement": "Relative affinity (ratio of ELISA signal versus cy(LLFFF))", "setting": "[3]; ELISA 1, [MrkA] for ELISA N/A", "value": 1.00}, {"measurement": "Relative affinity (ratio of ELISA signal versus cy(LLFFF))", "setting": "[3]; [MrkA] for ELISA 25 nM (ELISA 2, 5, 6)", "value": 1.00}, {"measurement": "Relative affinity (ratio of ELISA signal versus cy(LLFFF))", "setting": "[3]; [MrkA] for ELISA 50 nM (ELISA 3)", "value": 1.00}, {"measurement": "Relative affinity (ratio of ELISA signal versus cy(LLFFF))", "setting": "[3]; [MrkA] for ELISA 100 nM (ELISA 4)", "value": 1.00}]}]}
